Assay results reported in PMC8291384 (Nature structural & molecular biology, 2020).

Biological target: T1, mouse RAG1 (aa 265-1040) E962Q, His6-MBP fusion (mouse, UniProt P15919 265-1040, E962Q)
T1 sequence (looked up): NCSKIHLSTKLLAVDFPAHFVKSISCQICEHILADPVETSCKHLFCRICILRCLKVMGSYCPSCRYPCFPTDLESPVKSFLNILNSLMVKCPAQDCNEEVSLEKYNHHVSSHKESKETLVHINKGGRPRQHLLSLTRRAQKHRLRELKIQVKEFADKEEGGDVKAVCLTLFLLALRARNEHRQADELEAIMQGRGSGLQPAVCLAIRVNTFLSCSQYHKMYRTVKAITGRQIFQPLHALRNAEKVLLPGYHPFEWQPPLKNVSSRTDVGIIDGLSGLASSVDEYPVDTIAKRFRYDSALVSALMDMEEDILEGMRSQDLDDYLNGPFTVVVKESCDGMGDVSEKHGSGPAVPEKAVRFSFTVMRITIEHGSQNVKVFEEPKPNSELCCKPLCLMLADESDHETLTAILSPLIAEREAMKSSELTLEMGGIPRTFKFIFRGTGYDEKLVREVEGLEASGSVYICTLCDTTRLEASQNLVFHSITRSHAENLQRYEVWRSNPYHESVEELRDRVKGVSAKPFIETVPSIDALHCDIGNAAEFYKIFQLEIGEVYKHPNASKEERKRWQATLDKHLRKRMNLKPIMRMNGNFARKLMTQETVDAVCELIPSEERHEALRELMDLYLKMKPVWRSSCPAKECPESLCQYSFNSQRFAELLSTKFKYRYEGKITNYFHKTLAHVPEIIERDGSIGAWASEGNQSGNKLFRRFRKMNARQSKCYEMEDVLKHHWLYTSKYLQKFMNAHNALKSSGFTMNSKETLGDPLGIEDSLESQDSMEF
Assay: cryo-EM structure

binding result: binds
B1: mouse RAG2 (aa 1-520) T490A, His6-MBP fusion (domain or fragment, UniProt P21784 1-520, looked up)
chain: MSLQMVTVGHNIALIQPGFSLMNFDGQVFFFGQKGWPKRSCPTGVFHFDIKQNHLKLKPAIFSKDSCYLPPLRYPATCSYKGSIDSDKHQYIIHGGKTPNNELSDKIYIMSVACKNNKKVTFRCTEKDLVGDVPEPRYGHSIDVVYSRGKSMGVLFGGRSYMPSTQRTTEKWNSVADCLPHVFLIDFEFGCATSYILPELQDGLSFHVSIARNDTVYILGGHSLASNIRPANLYRIRVDLPLGTPAVNCTVLPGGISVSSAILTQTNNDEFVIVGGYQLENQKRMVCSLVSLGDNTIEISEMETPDWTSDIKHSKIWFGSNMGNGTIFLGIPGDNKQAMSEAFYFYTLRCSEEDLSEDQKIVSNSQTSTEDPGDSTPFEDSEEFCFSAEATSFDGDDEFDTYNEDDEDDESVTGYWITCCPTCDVDINTWVPFYSTELNKPAMIYCSHGDGHWVHAQCMDLEERTLIHLSEGSNKYYCNEHVQIARALQAPKRNPPLQKPPMKSLHKKGSGKVLTPAKKS
